Changes are numbered by the printed parent chain.
B1: MOR03790 Fab (Fab, V domains shown)
VH: QVELVQSGAEVKKPGSSVKVSCKASGGTFSSYGISWVRQAPGQGLEWMGGIIPIFGTANYAQKFQGRVTITADESTSTAYMELSSLRSEDTAVYYCARYDGIYGELDFWGQGTLVTVSS
VL: not shown
B2: MOR03790 IgG1 (antibody, V domains shown)
VH: B1 VH
VL: not shown
B3: MOR03850 Fab (Fab, V domains shown)
VH: B1 VH with G50A, I52N, I54L, F55A, T57H, A58T, N59H
VL: not shown
B4: MOR03850 IgG1 (antibody)
chain 1: B1 VH with G50A, I52N, I54L, F55A, T57H, A58T, N59H
chain 2: not shown
modifications: not checked
B5: MOR03781 Fab (Fab, V domains shown)
VH: B1 VH
VL: not shown
B6: MOR03781 IgG1 (antibody, V domains shown)
VH: B1 VH
VL: not shown
B7: MOR03754 Fab (Fab)
chain 1: QVQLVESGGGLVQPGGSLRLSCAASGFTFRSYGMSWVRQAPGKGLEWVSSIEHKWSGYATTYAASVKGRFTISRDNSKNTLYLQMNSLRAEDTAVYYCARFEFTPWTYFDFWGQGTLVTVSS
chain 2: DIELTQPPSVSVAPGQTARISCSGDNLGKKYVYWYQQKPGQAPVLVIYDDDNRPSGIPERFSGSNSGNTATLTISGTQAEDEADYYCQSYTAQSSASFGGGTKLTVL
modifications: not checked

Experiments:
[1] = target: T1, human monocyte chemoattractant protein-1 (MCP-1) (human), P13500; assay: SET, IGEN (BioVeris)
T1 sequence (P13500 other isoform, or with tags, fused parts or gaps, form in doubt): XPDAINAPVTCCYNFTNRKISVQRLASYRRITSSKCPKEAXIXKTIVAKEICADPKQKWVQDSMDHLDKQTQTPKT

[2] = target: T1, human monocyte chemoattractant …; assay: 125I-MCP-1 binding to THP-1 cells, radio-ligand competition
[3] = target: T1, human monocyte chemoattractant …; assay: cell-based or functional assay
[4] = target: T1, human monocyte chemoattractant …; assay: SET, BioVeris, Fab, rh MCP-1
[5] = target: T1, human monocyte chemoattractant …; assay: SET, BioVeris, IgG1, rh MCP-1
[6] = target: cynomolgus monkey MCP-1 (cynomolgus monkey), P61274; assay: SET, BioVeris, cyno MCP-1
Sequence of cynomolgus monkey MCP-1 (cynomolgus monkey), P61274 (P61274 24-99 limits assumed): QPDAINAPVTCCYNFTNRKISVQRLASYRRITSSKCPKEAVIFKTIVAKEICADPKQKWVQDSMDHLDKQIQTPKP

[7] = target: cynomolgus monkey MCP-1 (cynomolgus monkey), P61274; assay: SET, BioVeris, IgG1, cyno MCP-1
[8] = target: T2, human MCP-2 (human), P80075; assay: 125I-MCP-2 binding to CCR2 on THP-1 cells, radio-ligand competition
T2 chain: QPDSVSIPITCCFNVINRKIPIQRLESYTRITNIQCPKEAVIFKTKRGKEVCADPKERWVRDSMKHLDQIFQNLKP

Row | Binder | Kd [1] [nM] | IC50 [2] [nM] | Inhibition of Ca2+ Mobilization IC50 [3] [nM] | Kd [4] [nM] | Kd [5] [nM] | Kd [6] [nM] | Kd [7] [nM] | IC50 [8] [nM]
1 | B1 | 0.12 | 0.26 | 25 | 0.12 |  |  |  | 
2 | B2 | 0.07 | 0.03 | 4.26 |  | 0.07 |  |  | 
3 | B3 | 0.04 | 0.16 | 28.4 | 0.04 |  |  |  | 
4 | B4 | 0.01 | 0.05 | 9.47 |  | 0.011 | 0.01 | 0.021 | 
5 | B5 | 0.03 | 0.18 | 21.8 | 0.03 |  |  |  | 
6 | B6 | 0.02 | 0.02 | 10.9 |  | 0.02 |  |  | 
7 | B7 |  |  |  |  |  |  |  | > 2000

Reference: patent EP1888114B1
